Results published in patent US20140323349A1, “COMPOSITIONS AND METHODS FOR MONITORING AND DETECTING CANCEROUS CONDITIONS” (PHIGENIX, INC., priority 2011, published 2014).

Columns and labels:
Type in all cases: cell-based, human
LNCaP cells [1] = assay: MTT cell viability assay; conditions: DEFB1 induction 24-72 h
Experimental: Reactions were performed three times in triplicate.
DU145, PC3 and LNCaP cells (1×10^5) were transfected with 0.5 μg of the PAX2 siRNA pool or control siRNA pool using Codebreaker transfection reagent according to the manufacturer's protocol (Promega). Next, cell suspensions were diluted and seeded onto a 96-well plate at 1-5×10^3 cells per well and allowed to grow for 2-, 4- or 6 days. After culture, cell viability was determined by measuring the conversion of 3-[4,5-dimethylthiazol-2yl]-2,5 diphenyl tetrazolium bromide, MTT (Promega), to a colored formazan product. Absorbance was read at 540 nm on a scanning multiwell spectrophotometer.
(§1) To examine the effects of hBD-1 on cell growth, metabolic 3-[4,5-dimethylthiazol-2yl]-2,5-diphenyl tetrazolium bromide (MTT) assay was performed. DU145, LNCaP, PC3 and PC3/AR+ cells co-transfected with pvgRXR plasmid and pIND/hBD-1 construct or control pvgRXR plasmid were seeded onto a 96-well plate at 1-5×10^3 cells per well. Twenty-four hours after seeding, fresh growth medium was added containing 10 μM Pon A daily to induce hBD-1 expression for 24, 48 and 72 h after which the MTT assay was performed according to the manufacturer's instructions (Promega). Reactions were performed three times in triplicate.

PC3/AR+ cells = assay: MTT cell viability assay; conditions: PC3/AR+ versus PC3
Experimental: as §1

DU145 cells [2] = assay: Annexin V-FITC/PI flow cytometry
Experimental: (§2) The remaining attached cells were harvested by trypsinization and combined with the detached cells and PBS. The cells were then pelleted at 4° C. (500×g) for 5 min, washed twice in PBS, and resuspended in 100 ul of 1× Annexin binding buffer (0.1 M Hepes/NaOH at pH 7.4, 1.4 M NaCl, 25 mM CaCl2) containing 5 μl of Annexin V-FITC and 5 μl of PI. The cells were incubated at room temperature (RT) for 15 min. in the dark, then diluted with 400 μl of 1× Annexin binding buffer and analyzed by FACscan (Becton Dickinson, San Jose, Calif.). All reactions were performed three times.
(§3) PC3 and DU145 cells transfected with the hBD-1 expression system were grown in 60-mm dishes and induced for 12, 24, and 48 h with 10 μM Pon A. The cells were harvested and analyzed by flow cytometry as described in Example 1.

PC3 cells [3] = assay: Annexin V-FITC/PI flow cytometry
Experimental: as §2, §3

active caspases = assay: Pan-caspase detection (FAM-VAD-FMK, confocal)
Experimental: Detection of caspase activity in the prostate cancer cell lines was performed using APO LOGIX™ Carboxyfluorescin Caspase detection kit (Cell Technology, Mountain View, Calif.). Active caspases were detected through the use of a FAM-VAD-FMK inhibitor that irreversibly binds to active caspases. […] Next, 10 μl of a 30× working dilution of carboxyfluorescein labeled peptide fluoromethyl ketone (FAM-VAD-FMK) was added to 300 μl of media and added to each 35 mm dish. Cells were then incubated for 1 hour at 37° C. under 5% CO2. Then, the medium was aspirated and the cells were washed twice with 2 ml of a 1× Working dilution Wash Buffer. Cells were viewed under differential interference contrast (DIC) or under laser excitation at 488 nm. The fluorescent signal was analyzed using a confocal microscope (Zeiss LSM 5 Pascal) and a 63×DIC oil lens with a Vario 2 RGB Laser Scanning Module.

DU145 cells [4] = assay: AO/EtBr membrane integrity staining
Experimental: (§4) Acridine orange (AO)/ethidium bromide (EtBr) dual staining was performed to identify changes in cell membrane integrity, as well as apoptotic cells by staining the condensed chromatin. AO stains viable cells as well as early apoptotic cells, whereas EtBr stains late stage apoptotic cells that have lost […]. Briefly, cells were seeded into 2 chamber culture slides (BD Falcon, USA). […] In order to determine the effect of PAX2 inhibition on membrane integrity, separate culture slides containing DU145, PC3 and LNCaP were treated with PAX2 siRNA and incubated for 4 days. Following this, cells were washed once with PBS and stained with 2 ml of a mixture (1:1) of AO (Sigma, USA) and EtBr (Promega, USA) (5 ug/ml) solution for 5 min. Following staining, the cells were again washed with PBS. Fluorescence was viewed by a Zeiss LSM 5 Pascal Vario 2 Laser Scanning Confocal Microscope (Carl Zeiss Jena, Germany). The excitation color wheel contain BS505-530 (green) and LP560 (red) filter blocks which allowed for the separation of emitted green light from AO into the green channel and red light from EtBr into the red channel. […] The excitation was provided by a Kr/Ar mixed gas laser at wavelengths of […]. Slides were analyzed under 40× magnification and digital images were stored as uncompressed TIFF files and exported into Photoshop CS software (Adobe Systems, San Jose, Calif.) for image processing and hard copy presentation.
(§5) Acridine orange (AO)/ethidium bromide (EtBr) dual staining was performed to identify changes in cell membrane integrity, as well as apoptotic cells by staining the condensed chromatin. AO stains viable cells and early apoptotic cells, whereas EtBr stains late stage apoptotic cells that have compromised membranes. Briefly, PC3, DU145 and LNCaP cells were seeded into 2-chamber culture slides (BD Falcon). Cells transfected with empty plasmid or hBD-1 plasmid were induced for 24 or 48 h with media containing 10 μM Pon A, while control cells received fresh growth media at each time point. After induction, cells were washed once with PBS and stained with 2 ml of a mixture (1:1) of AO (Sigma, St. Louis, Mo.) and EtBr (Promega) (5 μg/ml) solution for 5 min and were again washed with PBS.
(§6) Fluorescence was viewed by a Zeiss LSM 5 Pascal Vario 2 Laser Scanning Confocal Microscope (Carl Zeiss). The excitation color wheel contains BS505-530 (green) and LP560 (red) filter blocks which allowed for the separation of emitted green light from AO into the green channel and red light from EtBr into the red channel. The laser power output and gain control settings within each individual experiment were identical between control and hBD-1 induced cells. The excitation was provided by a Kr/Ar mixed gas laser at wavelengths of […]. Slides were analyzed under 40× magnification and digital images were stored as uncompressed TIFF files and exported into Photoshop CS software (Adobe Systems) for image processing and hard copy presentation.

LNCaP cells [5] = assay: AO/EtBr membrane integrity staining; conditions: 48 h hBD-1 induction
Experimental: as §4, §5, §6

PC3 cells [6] = assay: AO/EtBr membrane integrity staining
Experimental: as §4, §5, §6

DU145 cells [7] = assay: Phase contrast microscopy of cell growth; conditions: DU145, 48 h DEFB1 induction
Experimental: (§7) Cell morphology was analyzed by phase contrast microscopy. […] The following day plasmid-containing cells were induced for a period of 48 h with media containing 10 μM Ponasterone A, while control cells received fresh media. The cells were then viewed under an inverted Zeiss IM 35 microscope (Carl Zeiss, Germany). Phase contrast pictures of a field of cells were obtained using the SPOT Insight Mosaic 4.2 camera (Diagnostic Instruments, USA). Cells were examined by phase contrast microscopy under 32× magnification and digital images were stored as uncompressed TIFF files and exported into Photoshop CS software (Adobe Systems, San Jose, Calif.) for image processing and hard copy presentation.
(§8) The effect of PAX2 knock-down on cell growth was analyzed by phase contrast microscopy as described in Example 1.

LNCaP cells [8] = assay: Phase contrast microscopy of cell growth; conditions: 48 h DEFB1 induction
Experimental: as §7, §8

PC3 cells [9] = assay: Phase contrast microscopy of cell growth; conditions: PC3, 48 h DEFB1 induction
Experimental: as §7, §8

B1: DEFB1: human β-defensin-1 (SEQ ID NO:63), expressed in cells from pIND/DEFB1 on Ponasterone A induction (protein, listed as Homo sapiens)
chain: MRTSYLLLFTLCLLLSEMASGGNFLTGLGHRSDHYNCVSSGGQCLYSACPIFTKIQGTCYRGKAKCCK
In the case of B1, the “effect on cell viability” value (LNCaP cells [1]) is reported as “no significant effect”, the “hBD-1 cytotoxicity with ectopic AR expression” value (PC3/AR+ cells) is reported as “no difference between PC3/AR+ and PC3 cells” and the “number of apoptotic cells” value (DU145 cells [2]; DU145, 12 h DEFB1 induction) is reported as 12%. The “number of apoptotic cells” value (DU145 cells [2]; DU145, 24 h DEFB1 induction) was 34%, the “number of apoptotic cells” value (DU145 cells [2]; DU145, 48 h DEFB1 induction) was 59% and the “number of apoptotic cells” value (PC3 cells [3]; PC3, 12 h DEFB1 induction) was 10%. The “number of apoptotic cells” value (PC3 cells [3]; PC3, 24 h DEFB1 induction) was 20%, the “caspase activity (green staining)” value (active caspases; DU145, 24 h DEFB1 induction) was “green staining” and the “caspase activity (green staining)” value (active caspases; LNCaP, 24 h DEFB1 induction) was “no green staining”. For the same molecule, the “caspase activity (green staining)” value (active caspases; PC3, 24 h DEFB1 induction) was “green staining”, the “membrane integrity (AO/EtBr)” value (DU145 cells [4]; DU145, 24 h DEFB1 induction) was “accumulation of EtBr in the cytoplasm” and the “membrane integrity (AO/EtBr)” value (DU145 cells [4]; DU145, 48 h DEFB1 induction) was “condensed nuclei and appeared yellow”. For the same molecule, the “membrane integrity (AO/EtBr)” value (LNCaP cells [5]) was “no observable alterations to membrane integrity”, the “membrane integrity (AO/EtBr)” value (PC3 cells [6]; PC3, 24 h DEFB1 induction) was “accumulation of EtBr in the cytoplasm” and the “membrane integrity (AO/EtBr)” value (PC3 cells [6]; PC3, 48 h DEFB1 induction) was “condensed nuclei and appeared yellow”. The cell number (DU145 cells [7]) was “significant reduction in cell number”, the cell proliferation (LNCaP cells [8]) was “no effect on cell proliferation” and the cell number (PC3 cells [9]) was “significant reduction in cell number”.
